We go through 4 molecules from patent US20140248666A1 (Amgen, published 2014).

Experiment [1] has as its target T1, human sclerostin, mature form (signal peptide removed) (human, UniProt Q9BQB4 24-213).
T1 construct: 190 amino acid glycoprotein with four disulfide bonds (C1-C5, C2-C6, C3-C7, C4-C8); also called SOST; recombinant human sclerostin
T1 sequence: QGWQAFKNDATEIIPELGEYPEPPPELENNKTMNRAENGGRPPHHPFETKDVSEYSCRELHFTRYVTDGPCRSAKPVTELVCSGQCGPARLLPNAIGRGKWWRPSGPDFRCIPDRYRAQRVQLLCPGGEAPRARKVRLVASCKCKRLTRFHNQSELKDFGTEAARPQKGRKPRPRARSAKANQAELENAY
In words: Biacore human sclerostin peptide epitope competition binding assay: 2 nM Mab injected over human sclerostin immobilised on a CM5 chip, alone or after preincubation with 20 nM soluble human sclerostin. As for the experimental part: (§1) Immobilization of mature form human sclerostin to a BIAcore sensor chip (CM5) surface was performed according to manufacturer's instructions. Briefly, carboxyl groups on the sensor chip surfaces were activated by injecting 60 μL of a mixture containing 0.2 M N-ethyl-N′-(dimethylaminopropyl) carbodiimide (EDC) and 0.05 M N-hydroxysuccinimide (NHS). Human sclerostin was diluted in 10 mM sodium acetate, pH 4.0 at a concentration of 20 μg/mL followed by injecting over the activated CM5 surface. Excess reactive groups on the surfaces were deactivated by injecting 60 μL of 1M ethanolamine. Final immobilized levels were ˜5000 resonance units (RU) for the human sclerostin surface. A blank, mock-coupled reference surface was also prepared on the sensor chips.
In general terms: SPR reads the build-up and loss of mass on a sensor chip optically.

Experiment [2] addresses T2, human sclerostin tryptic peptide T20.6 (human).
T2 chain 1: DVSEYSCRELHFTR
T2 chain 2: SAKPVTELVCSGQCGPAR
T2 chain 3: WWRPSGPDFRCIPDRYR
T2 chain 4: LVASCKCKRLTR
In words: Biacore human sclerostin peptide epitope competition binding assay: 2 nM Mab preincubated with 20 nM peptide in solution, then injected over immobilised human sclerostin; loss of Ru signal means the Mab bound the peptide. As to the method:
as §1

The target of experiment [3] is T3, human sclerostin AspN peptide AspN18.6 (FIG. 12 labels it '(Glycopeptide)'. The glycan site is not stated. The only N-X-T sequon is NKT, so the glycosylated residue is probably Asn at chain 1 pos 22, written N.).
T3 peptide: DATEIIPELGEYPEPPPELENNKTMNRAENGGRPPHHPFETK
In words: Biacore human sclerostin peptide epitope competition binding assay: 2 nM Mab preincubated with 20 nM peptide in solution, then injected over immobilised human sclerostin; unchanged Ru signal means the Mab did not bind the peptide. As for the experimental part: as §1

In experiment [4] the target is T4, human sclerostin tryptic peptide T19.2 (Interchain disulfide C2-C6 (Cys71-Cys125 of SEQ ID NO:1): chain 1 pos 7 to chain 2 pos 5.).
T4 construct: Two peptides linked by the C2-C6 disulfide bond
T4 peptide 1: YVTDGPCR
T4 peptide 2: VQLLCPGGEAPR
Described as above. As to the method: as §1

Experiment [5] deals with T2, human sclerostin tryptic peptide T20.6. Described as above. As to the method:
as §1

Experiment [6] addresses T1, human sclerostin, mature form (signal …). In words: Biacore cross-blocking, human sclerostin on CM5 chip; mixed with competitor Ab-3, each 1.3 uM binding sites. As to the method: (§2) Human sclerostin was coupled to a CM5 Biacore chip using standard amine coupling chemistry to generate a sclerostin coated surface. 300 resonance units of sclerostin were coupled to the surface.
(§3) 20 μL of the test mixture was passed over the sclerostin-coated chip at a flow rate of 10 μL/min and the amount of binding recorded. The chip was then treated with two 60 second pulses of 30 mM HCl to remove all of the bound antibody. A solution containing only one of the antibodies of the test mixture (at 1.3 μM in the same buffer as the test mixture on a binding site basis) was then passed over the chip in the same manner as the test mixture and the amount of binding recorded. The chip was again treated to remove all of the bound antibody and finally a solution containing the other antibody from the test mixture alone (at 1.3 μM in the same buffer as the test mixture on a binding site basis) was passed over the chip and the amount of binding recorded.
(§4) The table below show the results from cross-blocking assays on a range of different antibodies. The values in each square of the table represent the amount of binding (in RU) seen when the antibodies (at 1.3 μM on a binding site basis) or buffer indicated in the top row of the table were mixed with the antibodies (at 1.3 uM on a binding site basis) or buffer indicated in the first column of the table.

Experiment [7] has the same target. In words: Biacore cross-blocking, human sclerostin on CM5 chip; mixed with competitor Ab-4, each 1.3 uM binding sites. As for the experimental part: as §2, §3, §4
For experiment [8] the target is unchanged. In words: Biacore cross-blocking, human sclerostin on CM5 chip; mixed with competitor Ab-19, each 1.3 uM binding sites. As for the experimental part: as §2
(§5) The antibodies to be tested were diluted to a concentration of 200 ug/ml in HBS-EP buffer (being 10 mM HEPES pH 7.4, 150 mM NaCl, 3 mM EDTA, 0.005% (v/v) Surfactant P20) and then mixed in a one to one molar ratio (on a binding site basis) to generate the test mixture. This test mixture thus contained each antibody at a concentration of 100 ug/ml (1.3 um on a binding site basis). Separate solutions containing each of the antibodies in the test mix alone were also prepared. These solutions contained the individual antibodies in HBS-EP buffer at a concentration of 100 ug/ml (1.3 um on a binding site basis).
as §3

The target is the same in experiment [9]. In words: Biacore cross-blocking on human sclerostin; mixture with competitor Ab-3, mean RU against the sum of each alone. As to the method: as §2, §5, §3
Experiment [10] shares this target. In words: Biacore cross-blocking on human sclerostin; mixture with competitor Ab-19, mean RU against the sum of each alone. As for the experimental part: as §2, §5, §3
For experiment [11] the target is unchanged. In words: Biacore cross-blocking, human sclerostin on CM5 chip; mixed with competitor Ab-13, each 1.3 uM binding sites. As to the method: as §2, §5, §3

B1: Antibody C (antibody, mouse IgG1, kappa, V domains shown)
VH: EVQLQQSGPELVKPGTSVKMSCKASGYTFTDCYMNWVKQSHGKSLEWIGDINPFNGGTTYNQKFKGKATLTVDKSSSTAYMQLNSLTSDDSAVYYCARSHYYFDGRVPWDAMDYWGQGTSVTVSS
VL: DIVLTQSPASLTVSLGLRATISCKASQSVDYDGDSYMNWYQQKPGQPPKLLIYAASNLESGIPARFSGNGSGTDFTLNIHPVEEEDAVTYYCQQSNEDPWTFGGGTKLEIKR
notes: Mouse antibody; mature chains; also called Ab-C; Mab-C
Regarding B1, the binding result is recorded as “binds” in [1], “binds” in experiment [2], “no binding (tested: 20 nM)” in experiment [3] and “no binding (tested: 20 nM)” in [4].

B2: Antibody B (antibody, mouse IgG1, kappa, V domains shown)
VH: QVTLKESGPGILQPSQTLSLTCSFSGFSLSTSGMGVGWIRHPSGKNLEWLAHIWWDDVKRYNPVLKSRLTISKDTSNSQVFLKIANVDTADTATYYCARIEDFDYDEEYYAMDYWGQGTSVIVSS
VL: QIVLTQSPTIVSASPGEKVTLICSASSSVSFVDWFQQKPGTSPKRWIYRTSNLGFGVPARFSGGGSGTSHSLTISRMEAEDAATYYCQQRSTYPPTFGAGTKLELKR
notes: Mouse antibody; mature chains; also called Ab-B; Mab-B
For the molecule B2, the binding result in experiment [1] is “binds”; in experiment [3] it was “no binding (tested: 20 nM)”; in experiment [5], “no binding (tested: 20 nM)”; in experiment [4] it was “no binding (tested: 20 nM)”.

B3: Antibody D (antibody, mouse IgG1, kappa, V domains shown)
VH: EVQLQQSGPELVTPGASVKISCKASGYTFTDHYMSWVKQSHGKSLEWIGDINPYSGETTYNQKFKGTATLTVDKSSSIAYMEIRGLTSEDSAVYYCARDDYDASPFAYWGQGTLVTVSA
VL: DVQMIQSPSSLSASLGDIVTMTCQASQGTSINLNWFQQKPGKAPKLLIYGSSNLEDGVPSRFSGSRYGTDFTLTISSLEDEDLATYFCLQHSYLPYTFGGGTKLEIKR
notes: Mouse antibody; mature chains; also called Ab-D; Mab-D
Take B3: the binding result is on record as “binds” in experiment [1], “binds” in experiment [2], “no binding (tested: 20 nM)” in [3] and “no binding (tested: 20 nM)” in experiment [4].

B4: Antibody A (antibody, mouse IgG1, kappa, V domains shown)
VH: QSLEESGGRLVTPGTPLTLTCTASGFSLSSYWMNWVRQAPGEGLEWIGTIDSGGRTDYASWAKGRFTISRTSTTMDLKMTSLTTGDTARYFCARNWNLWGQGTLVTVSS
VL: AQVLTQTPASVSAAVGGTVTINCQSSQSVYDNNWLAWFQQKPGQPPKLLIYDASDLASGVPSRFSGSGSGTQFTLTISGVQCADAATYYCQGAYNDVIYAFGGGTEVVVKR
notes: Rabbit-mouse chimeric antibody; mature chains (signal peptides cleaved off); also called Ab-A; Mab-A
For B4, the “amount of binding (RU)” value was determined as 946 RU in experiment [6], 833 RU in experiment [7], 868 RU in experiment [8] and 1080 RU in experiment [11]. The “percentage of the theoretical binding” value in [9] was determined as 93.5%; in experiment [10], 65%. Besides, the binding result in experiment [3], in [5] and in experiment [4] was “no binding (tested: 20 nM)” throughout.
